Source: US20190300618A1 (Merck Sharp & Dohme, published 2019)

T1: S63A
T1 construct: also called hCD27 S63A
T1 receptor: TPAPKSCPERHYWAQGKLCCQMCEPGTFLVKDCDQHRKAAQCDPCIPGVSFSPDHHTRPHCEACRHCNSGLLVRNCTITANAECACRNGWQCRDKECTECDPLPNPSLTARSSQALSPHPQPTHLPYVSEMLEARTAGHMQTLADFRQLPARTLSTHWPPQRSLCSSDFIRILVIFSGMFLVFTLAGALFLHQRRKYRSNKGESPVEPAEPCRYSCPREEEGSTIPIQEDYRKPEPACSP

T2: V30A
T2 construct: also called hCD27 V30A
T2 receptor: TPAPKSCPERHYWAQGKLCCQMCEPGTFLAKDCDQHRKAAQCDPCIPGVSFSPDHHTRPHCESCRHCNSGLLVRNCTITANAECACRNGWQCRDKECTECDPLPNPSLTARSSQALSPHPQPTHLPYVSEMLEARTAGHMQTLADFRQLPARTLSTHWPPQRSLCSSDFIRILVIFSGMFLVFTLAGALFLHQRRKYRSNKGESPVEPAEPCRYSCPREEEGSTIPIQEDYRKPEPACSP


Tests used:
[1] = molecular target: human CD27 (wild type), expressed on cells (human) (UniProt P26842); assay: cell ELISA on transfected CHO cells
S63A = molecular target: T1, S63A; assay: flow cytometry, CHO-K1; single column;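 note: CHO-K1 cells transiently transfected with hCD27 alanine mutant constructs, anti-hCD27 antibody binding measured by flow cytometry, 30 min at 4 °C, wild-type hCD27 binding taken as 100%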
Description: (§1) The ability of several anti-hCD27 antibodies to bind to a series of hCD27 alanine mutants was determined using CHO-K1 cells, transiently transfected pCI-neo empty vector, pCI-neo.hCD27 and several pCI-neo.CD27Ala mutant constructs.
(§2) Detached cells were transferred to 96 wells round-bottomed well plates at approximately 1.2×10⁵ cells/well. After spinning down the cells, discarding the supernatants and re-suspending the cells in the residual volume, the primary antibodies were added and incubated for 30 minutes at 4° C. Cells were washed three times with DPBS/BSA 1%, followed by centrifugation, discarding of the supernatants and re-suspension in the residual volume. […] After washing once, antibody binding was detected using the HTS plate reader (FACS Canto II) and FlowJo software for data analysis. Debris, dead cells and doublets were excluded from the analysis. Binding was expressed as the geometric mean of the FITC signal, relative to antibody binding to hCD27, which was set at 100%.

V30A = molecular target: T2, V30A; assay: flow cytometry, CHO-K1; single column;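 note: CHO-K1 cells transiently transfected with hCD27 alanine mutant constructs, anti-hCD27 antibody binding measured by flow cytometry, 30 min at 4 °C, wild-type hCD27 binding taken as 100%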
Description: as §1, §2

| Molecule | fold higher EC50 compared to 131AVH6VL6-hIgG1 [1] | % of WT hCD27 binding (geo mean FITC) (S63A) | % of WT hCD27 binding (geo mean FITC) (V30A) |
| --- | --- | --- | --- |
| 1F5 hIgG1 (antibody) | 4 fold |  |  |
| hCD27.15-6B (humanized hCD27.15, human IgG4, Clone 6B) (antibody, V domains shown, humanized version of hCD27.15 from WO2012/004367 with identical CDR regions; also called hCD27.15 (humanized 6B); hCD27.15 6B humanized antibody) VH: QVQLVQSGAEVKKPGASVKVSCKASGFIIKATYMHWVRQAPGQRLEWMGRIDPANGETKYDPKFQVRVTITADTSASTAYMELSSLRSEDTAVYYCARYAWYFDVWGQGTLVTVSS VL: DIQMTQSPSSLSASVGDRVTITCRASENIYSFLAWYQQKPGKAPKLLIYHAKTLAEGVTSRFSGSGSGTDFTLTISSLQPEDSATYYCQHYYGSPLTFGQGTRLEIKR |  | 104% | 82.6% |
